Test results reported in paper PMC3863616 (Journal of thrombosis and haemostasis : JTH, 2009).
Like-named read-outs stand apart in the source and are kept apart here.

Assays:
[1] = molecular target: Purified recombinant von Willebrand factor (UniProt P04275); assay: co-IP + ELISA
[2] = molecular target: VWF (plastic-immobilized) (Homo sapiens) (UniProt P04275); conditions: cited from earlier work
[3] = molecular target: VWF (antibody-immobilized) (Homo sapiens) (UniProt P04275); conditions: cited from earlier work
[4] = molecular target: Endogenous von Willebrand factor of normal human plasma (human (endogenous in normal human …, UniProt P04275 764-2813)); assay: co-IP + ELISA
[5] = molecular target: T1, Purified recombinant von Willebrand factor (UniProt P04275 764-2813); assay: co-IP + ELISA
[6] = molecular target: T1, Purified recombinant von Willebrand …; assay: co-IP + ELISA; remark: listed apart in the source

Molecule: Human recombinant ADAMTS13 truncated after the eighth TSR (domain or fragment)
- Kd [1]: 100 nM

Molecule: ADAMTS13 (from UniProt Q76LX8)
- Kd [2]: 14 nM
- Kd [3]: 90 nM

B1: Endogenous ADAMTS13 of normal human plasma (enzyme, UniProt Q76LX8 75-1427, looked up)
chain: AAGGILHLELLVAVGPDVFQAHQEDTERYVLTNLNIGAELLRDPSLGAQFRVHLVKMVILTEPEGAPNITANLTSSLLSVCGWSQTINPEDDTDPGHADLVLYITRFDLELPDGNRQVRGVTQLGGACSPTWSCLITEDTGFDLGVTIAHEIGHSFGLEHDGAPGSGCGPSGHVMASDGAAPRAGLAWSPCSRRQLLSLLSAGRARCVWDPPRPQPGSAGHPPDAQPGLYYSANEQCRVAFGPKAVACTFAREHLDMCQALSCHTDPLDQSSCSRLLVPLLDGTECGVEKWCSKGRCRSLVELTPIAAVHGRWSSWGPRSPCSRSCGGGVVTRRRQCNNPRPAFGGRACVGADLQAEMCNTQACEKTQLEFMSQQCARTDGQPLRSSPGGASFYHWGAAVPHSQGDALCRHMCRAIGESFIMKRGDSFLDGTRCMPSGPREDGTLSLCVSGSCRTFGCDGRMDSQQVWDRCQVCGGDNSTCSPRKGSFTAGRAREYVTFLTVTPNLTSVYIANHRPLFTHLAVRIGGRYVVAGKMSISPNTTYPSLLEDGRVEYRVALTEDRLPRLEEIRIWGPLQEDADIQVYRRYGEEYGNLTRPDITFTYFQPKPRQAWVWAAVRGPCSVSCGAGLRWVNYSCLDQARKELVETVQCQGSQQPPAWPEACVLEPCPPYWAVGDFGPCSASCGGGLRERPVRCVEAQGSLLKTLPPARCRAGAQQPAVALETCNPQPCPARWEVSEPSSCTSAGGAGLALENETCVPGADGLEAPVTEGPGSVDEKLPAPEPCVGMSCPPGWGHLDATSAGEKAPSPWGSIRTGAQAAHVWTPAAGSCSVSCGRGLMELRFLCMDSALRVPVQEELCGLASKPGSRREVCQAVPCPARWQYKLAACSVSCGRGVVRRILYCARAHGEDDGEEILLDTQCQGLPRPEPQEACSLEPCPPRWKVMSLGPCSASCGLGTARRSVACVQLDQGQDVEVDEAACAALVRPEASVPCLIADCTYRWHVGTWMECSVSCGDGIQRRRDTCLGPQAQAPVPADFCQHLPKPVTVRGCWAGPCVGQGTPSLVPHEEAAAPGRTTATPAGASLEWSQARGLLFSPAPQPRRLLPGPQENSVQSSACGRQHLEPTGTIDMRGPGQADCAVAIGRPLGEVVTLRVLESSLNCSAGDMLLLWGRLTWRKMCRKLLDMTFSSKTNTLVVRQRCGRPGGGVLLRYGSQLAPETFYRECDMQLFGPWGEIVSPSLSPATSNAGGCRLFINVAPHARIAIHALATNMGAGTEGANASYILIRDTHSLRTTAFHGQQVLYWESESSQAEMEFSEGFLKAQASLRGQYWTLQSWVPEMQDPQSWKGKEGT
- stoichiometry N [4]: 0.004 ADAMTS13 per VWF (molar ratio)

B2: Human recombinant ADAMTS13 with the active site mutation E225Q (enzyme, UniProt Q76LX8 75-1427, looked up)
chain: AAGGILHLELLVAVGPDVFQAHQEDTERYVLTNLNIGAELLRDPSLGAQFRVHLVKMVILTEPEGAPNITANLTSSLLSVCGWSQTINPEDDTDPGHADLVLYITRFDLELPDGNRQVRGVTQLGGACSPTWSCLITEDTGFDLGVTIAHQIGHSFGLEHDGAPGSGCGPSGHVMASDGAAPRAGLAWSPCSRRQLLSLLSAGRARCVWDPPRPQPGSAGHPPDAQPGLYYSANEQCRVAFGPKAVACTFAREHLDMCQALSCHTDPLDQSSCSRLLVPLLDGTECGVEKWCSKGRCRSLVELTPIAAVHGRWSSWGPRSPCSRSCGGGVVTRRRQCNNPRPAFGGRACVGADLQAEMCNTQACEKTQLEFMSQQCARTDGQPLRSSPGGASFYHWGAAVPHSQGDALCRHMCRAIGESFIMKRGDSFLDGTRCMPSGPREDGTLSLCVSGSCRTFGCDGRMDSQQVWDRCQVCGGDNSTCSPRKGSFTAGRAREYVTFLTVTPNLTSVYIANHRPLFTHLAVRIGGRYVVAGKMSISPNTTYPSLLEDGRVEYRVALTEDRLPRLEEIRIWGPLQEDADIQVYRRYGEEYGNLTRPDITFTYFQPKPRQAWVWAAVRGPCSVSCGAGLRWVNYSCLDQARKELVETVQCQGSQQPPAWPEACVLEPCPPYWAVGDFGPCSASCGGGLRERPVRCVEAQGSLLKTLPPARCRAGAQQPAVALETCNPQPCPARWEVSEPSSCTSAGGAGLALENETCVPGADGLEAPVTEGPGSVDEKLPAPEPCVGMSCPPGWGHLDATSAGEKAPSPWGSIRTGAQAAHVWTPAAGSCSVSCGRGLMELRFLCMDSALRVPVQEELCGLASKPGSRREVCQAVPCPARWQYKLAACSVSCGRGVVRRILYCARAHGEDDGEEILLDTQCQGLPRPEPQEACSLEPCPPRWKVMSLGPCSASCGLGTARRSVACVQLDQGQDVEVDEAACAALVRPEASVPCLIADCTYRWHVGTWMECSVSCGDGIQRRRDTCLGPQAQAPVPADFCQHLPKPVTVRGCWAGPCVGQGTPSLVPHEEAAAPGRTTATPAGASLEWSQARGLLFSPAPQPRRLLPGPQENSVQSSACGRQHLEPTGTIDMRGPGQADCAVAIGRPLGEVVTLRVLESSLNCSAGDMLLLWGRLTWRKMCRKLLDMTFSSKTNTLVVRQRCGRPGGGVLLRYGSQLAPETFYRECDMQLFGPWGEIVSPSLSPATSNAGGCRLFINVAPHARIAIHALATNMGAGTEGANASYILIRDTHSLRTTAFHGQQVLYWESESSQAEMEFSEGFLKAQASLRGQYWTLQSWVPEMQDPQSWKGKEGT
- Kd [5]: > 500 nM
- Kd [6]: 79 nM
